Measured values: patent US10208288B2, “Differentiation of human embryonic stem cells into pancreatic endocrine cells” (Janssen Biotech, Inc., priority 2012, dated 2019)

Test system: cells of the human embryonic stem cell line H1 differentiated to stage 5
Experiment: Immunostaining for insulin protein expression at the end of Stage 5
Assay type: cell-based
Conditions: 50 or 100 ng/ml for three days at stage 5, immunostaining vs control; FIG. 2, FIG. 3
Method: Cells of the human embryonic stem cell line H1 (hESC H1, passage 40) were seeded as single cells at 1×10^5 cells/cm^2 on MATRIGEL™ (1:30 dilution; BD Biosciences, NJ)-coated dishes in mTeSR®1 media supplemented with 10 μM of Y27632. Forty-eight hours post seeding, cultures were washed in incomplete PBS (phosphate buffered saline without Mg or Ca). Cultures were differentiated into pancreatic endoderm/endocrine lineages as follows: • a) Stage 1 (Definitive Endoderm (DE)—3 days): Cells were cultured for one day in stage 1 media (see Example 1, above). Cells were then cultured for an additional day in MCDB-131 medium supplemented with 0.1% fatty acid-free BSA, 0.0012 g/ml sodium bicarbonate, 1× GlutaMax™, 4.5 mM D-Glucose, 100 ng/ml GDF8, and 0.1 μM MCX compound. […]

B1: Ephrin-A4: Ephrin ligand protein, R & D Systems catalogue number 369-EA (protein, UniProt P52798 26-170, looked up)
Ephrin-A4: LRHVVYWNSSNPRLLRGDAVVELGLNDYLDIVCPHYEGPGPPEGPETFALYMVDWPGYESCQAEGPRAYKRWVCSLPFGHVQFSEKIQRFTPFSLGFEFLPGETYYYISVPTPESSGQCLRLQVSVCCKERKSESAHPVGSPGES
  protein expression of insulin: significantly enhanced
